# Source: patent US20200071711, “MODULAR CONSTRUCTION OF SYNTHETIC GENE CIRCUITS IN MAMMALIAN CELLS USING MATHEMATICAL MODELING OF CLOSED LOOP TRANSCRIPTIONAL REPRESSORS” (Tsinghua University, published 2020)
# Molecular target: T1, TALER14 (synthetic, UniProt Q56830 SEQ:262-1310)
# T1 chain: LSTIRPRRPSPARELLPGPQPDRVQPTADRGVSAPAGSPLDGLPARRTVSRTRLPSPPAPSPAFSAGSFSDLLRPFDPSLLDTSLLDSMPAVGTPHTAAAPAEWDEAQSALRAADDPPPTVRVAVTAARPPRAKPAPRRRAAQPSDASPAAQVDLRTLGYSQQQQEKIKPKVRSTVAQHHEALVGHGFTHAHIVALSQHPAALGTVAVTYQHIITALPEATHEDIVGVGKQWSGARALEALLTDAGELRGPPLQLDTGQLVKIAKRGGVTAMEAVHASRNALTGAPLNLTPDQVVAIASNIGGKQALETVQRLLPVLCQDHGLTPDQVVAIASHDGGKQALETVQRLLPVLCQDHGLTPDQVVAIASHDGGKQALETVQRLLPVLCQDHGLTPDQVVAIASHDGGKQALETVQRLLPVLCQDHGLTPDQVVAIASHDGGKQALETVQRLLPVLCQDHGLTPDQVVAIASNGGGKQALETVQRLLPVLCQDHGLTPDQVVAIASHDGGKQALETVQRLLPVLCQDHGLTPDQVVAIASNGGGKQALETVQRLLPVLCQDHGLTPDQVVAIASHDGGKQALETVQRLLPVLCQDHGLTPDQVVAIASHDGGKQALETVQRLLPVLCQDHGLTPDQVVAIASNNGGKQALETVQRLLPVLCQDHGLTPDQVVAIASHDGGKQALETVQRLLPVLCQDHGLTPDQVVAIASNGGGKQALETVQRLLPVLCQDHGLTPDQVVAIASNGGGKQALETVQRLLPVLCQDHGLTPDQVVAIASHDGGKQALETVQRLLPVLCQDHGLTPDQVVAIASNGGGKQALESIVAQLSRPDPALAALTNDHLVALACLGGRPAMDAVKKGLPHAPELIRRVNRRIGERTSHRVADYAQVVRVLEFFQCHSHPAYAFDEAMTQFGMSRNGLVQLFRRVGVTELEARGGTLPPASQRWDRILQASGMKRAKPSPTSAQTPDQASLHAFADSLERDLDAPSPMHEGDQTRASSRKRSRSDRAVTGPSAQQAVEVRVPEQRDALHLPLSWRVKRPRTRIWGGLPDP
# Assay: cell_activity; HEK293, two sites flanking CMVmini
# Conditions: tags: EYFP-2A upstream, SV40 NLS
binder,measurement,value
T14 site (dsDNA) DNA 1: TACCCCTCTCCGCTTCT DNA 2: AGAAGCGGAGAGGGGTA,binding signal,1440 fold repression
